We go through three molecules from patent US8372580B2, “BRCA1 function-based cellular assays” (Morehouse School of Medicine, priority 2008, dated 2013).

The test system of the assay is ERα transcriptional activity in T47D breast cancer cells. Put plainly: Cell based assay #2: ERE-luciferase reporter, E2-induced ERα activation by Ubc9 C93S. The conditions noted are these: Ubc9 C93S (SUMO-independent), E2 1 μM. The procedure: T47D cells (5×10^5) were plated in 6-well plates for 24 hours. The cells were washed twice in PBS followed by the addition of phenol red free DMEM containing 5% charcoal-stripped FBS for 48 hrs before transfection. The cells were transfected with 1 μg of each of the indicated plasmids (with a total of 2.5 μg DNA) using lipofectamine 2000 (Life Technology, USA). The cells were induced with 1 μM of E2 4 hours after transfections, harvested after an additional 40 hrs and assayed for luciferase activity following the manufacturer's instructions. Each set of experiments was performed in triplicate and repeated a least three times.

B1: BRCA1 (aa 1-182): amino-terminal BRCA1 fragment, residues 1-182, with N-terminal FLAG sequence (protein, UniProt P38398 1-182, looked up, fragment)
chain: MDLSALRVEEVQNVINAMQKILECPICLELIKEPVSTKCDHIFCKFCMLKLLNQKKGPSQCPLCKNDITKRSLQESTRFSQLVEELLKIICAFQLDTGLEYANSYNFAKKENNSPEHLKDEVSIIQSMGYRNRAKRLLQSEPENPSLQETSLSVQLSNLGTVRTLRTKQRIQPQKTSVYIEL
modifications: N-terminal FLAG tag
In the case of B1, the “inhibition of E2-mediated ERα transcription activation by Ubc9/C93S” value (from here on “inhibition”) is “inhibit E2-mediated ERα transcription activation by Ubc9/C93S”.

B2: BRCA1 (aa 1-182) Mut#4: BRCA1 1-182 fragment point mutant 4; apparently C61G (protein, UniProt P38398 1-182, looked up, fragment C61G)
chain: MDLSALRVEEVQNVINAMQKILECPICLELIKEPVSTKCDHIFCKFCMLKLLNQKKGPSQGPLCKNDITKRSLQESTRFSQLVEELLKIICAFQLDTGLEYANSYNFAKKENNSPEHLKDEVSIIQSMGYRNRAKRLLQSEPENPSLQETSLSVQLSNLGTVRTLRTKQRIQPQKTSVYIEL
B2: the “inhibition” value was “unlike their respective Mut #1 and Mut#4, inhibit”.

B3: BRCA1 (aa 1-182) Mutant #1: BRCA1 1-182 fragment point mutant 1; apparently K109R (protein, UniProt P38398 1-182, looked up, fragment K109R)
chain: MDLSALRVEEVQNVINAMQKILECPICLELIKEPVSTKCDHIFCKFCMLKLLNQKKGPSQCPLCKNDITKRSLQESTRFSQLVEELLKIICAFQLDTGLEYANSYNFARKENNSPEHLKDEVSIIQSMGYRNRAKRLLQSEPENPSLQETSLSVQLSNLGTVRTLRTKQRIQPQKTSVYIEL
Take B3: the “inhibition” value is “unlike their respective Mut #1 and Mut#4, inhibit”.
